# Source: the nanobody polyreactivity screen of Harvey et al. (2022)
# Experiment: yeast display, Sf9 membrane polyspecificity reagent, FACS + sequencing; frameworks hold sequencing errors
# Procedure, shortened: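 A nanobody's polyreactivity label depends on the gate it was sorted from. Yeast display cells were stained with 10% biotinylated, detergent-solubilized Sf9 membrane reagent for 1 hour at 4 °C, enriched on streptavidin microbeads and sorted by FACS. The low and high (top ~1%) gates were set on anti-HA fluorescence for expression and streptavidin fluorescence for reagent binding.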
row,Sequence,polyreactivity (PSR sort gate)
1,QVQLVESGGGLVQAGGSLRLSCAASGRIFAYYAMGRYRQAPGKERELVAAITRSGARTYYADSVKGRFTISRDNAKNTVYLQMNSLKPEDTAVYYCAAEGVRIGTRYDYWGQGTQVTVSS,high polyreactivity
2,QVQLVESGGGLVQAGGSLRLSCAASGRIFAYYAMGWYRQAPGKERELVAAINSNGGSTYYADSVKGRFTISRDNAKNTVYLQLNSLKPEDTAVYYCAAGARYKMGYWGQGTQVTVSS,high polyreactivity
3,QVQLVESGGGLVQAGGSLRLSCAASGRIFAYYAMGWYRQAPGKERELVAAISSSGVSTSYADSVKGRFTISRDNAKNTVYLQMNSLKPEDTAVYYCAASPGGRPYFNHDSWGQGTQVTVSS,low polyreactivity
4,QVQLVESGGGLVQAGGSLRLSCAASGRIFAYYAMGWYRQAPGKERELVAAITRSGARTYYADSVKGRFTISRDNAKNTVYLQMNSLKPEDTAVYYCAAEGVRIGTRYDYWGQGTQVTVSS,high polyreactivity
5,QVQLVESGGGLVQAGGSLRLSCAASGRIFAYYAMGWYRQAPGKERELVAGISKSGGRTYYADSVKGRFTISRDNAKNTVYLQMNSLKPEDTAVYYCAVESYRRYYYWGQGTQVTVSS,high polyreactivity
6,QVQLVESGGGLVQAGGSLRLSCAASGRIFCTNAMGWYRHEPGKERELVADITSGGSTNYADSVKGRFTISRDNAKNTVYLQMNSLKPEDTAVYSCAADVIGDLRWYRDEYWGQGTQVTVSS,low polyreactivity
7,QVQLVESGGGLVQAGGSLRLSCAASGRIFDAKVMGWYRQAPGKERELVAAISASAGSTSYADSVKGRFTISRDNAKNTVYLQMNSLKPEDTSVYYCAADPYQLWHYYYFGMDYWGQGTQVTVSS,low polyreactivity
8,QVQLVESGGGLVQAGGSLRLSCAASGRIFDDNAMGWYRQAPGKERELVADINNATSTNYADSVKGRFTISRDNAKNTVYLQMNSLKPEDTAVYYCAADDYIYYRILGDSFVYKAYGYWGQGTQVTVSS,low polyreactivity
9,QVQLVESGGGLVQAGGSLRLSCAASGRIFDDYAMGWYRQAPGKERELVAAIRSGGNTNYADSVKGRFTISRDNAKNTVYLQMNSLKPEDTADYYCAADTWFRAGYFVVYYDYWGQGTQVTVSS,low polyreactivity
10,QVQLVESGGGLVQAGGSLRLSCAASGRIFDGNARGWYIQAPGKERELVAAISRNGGTYYADSVKGRFTISRDNAKNTVYLQMNSLKPEDTAVYYCAADPSSVGYHVEYDYWGQGTQVTVSS,low polyreactivity
11,QVQLVESGGGLVQAGGSLRLSCAASGRIFDGYAIGWYRQAPGKERDLVAAISWGGGSTYYADSVKGRFTISRDNAKNTVYLQMNSLKPDDTAVYYCAGDGIWAREMDYWGQGTQVTVSS,low polyreactivity
12,QVQLVESGGGLVQAGGSLRLSCAASGRIFDGYAIGWYRQAPGKERELVAAISSRGGRTYYADSVKGRFTISRDNAKNTVYLQMNSLKPEDTAVYYCAAVDPYGEGDYWGQGTQVTVSS,low polyreactivity
13,QVQLVESGGGLVQAGGSLRLSCAASGRIFDHNAMGWYRQAPGKERELVAAINYSDDSTYYADSVKGRFTISRDNAKNTVYLQMNSLKPEDTAVYYCNADVGSEYSDKYDYWGQGTQVTVSS,low polyreactivity
14,QVQLVESGGGLVQAGGSLRLSCAASGRIFDINAMGWYRQAPGKERELVAAINYNGSSTYYADSVKGRFTISRDNAKNTVYLEMNSLKPEDTAVYYCATEQVDVYTYDYWGQGTQVTVSS,high polyreactivity
15,QVQLVESGGGLVQAGGSLRLSCAASGRIFDKYAMGWYRQAPGKERELVAAIDWSGGSTYYADSVKGRFTISRDNAKNTVYLQMNSLKPEDTAVYYCAAYWYYEDGQSEARLYGYDYWGQGTQVTVSS,low polyreactivity
16,QVQLVESGGGLVQAGGSLRLSCAASGRIFDNYVMGWYRQAPGKERELVAAISSGGGTYYADSVKGRFTISRDNAKNTVYLQMNSLKPEDTAVYYCAKRRVYDRSFGRYDYWGQGTQVTVSS,low polyreactivity
17,QVQLVESGGGLVQAGGSLRLSCAASGRIFDPYAMGWYRQAPGKERELVASISWSGGRTYYADSVKGRFTISRDNAKNTVYLQMNSLKPEDTAVYYCAARQWYRYKVRFDYWGQGTQVTVSS,high polyreactivity
18,QVQLVESGGGLVQAGGSLRLSCAASGRIFDQYAMGWYRQAPGKERELVAVISSSGTTNYADSVKGRFTISRDNAKNTVYLQMNSLKPEDTAVYYCAARRQSWFVAAHMDYWGQGTQVTVSS,low polyreactivity
19,QVQLVESGGGLVQAGGSLRLSCAASGRIFDVYAMGWYRQAPGKERELVATITGSGGGTYYADSVKGRFTISRDNAKNPVYLQMNSLKPEDTADYYCAADYYPTYAYYVSNVGYDYWGQGTQVTVSS,low polyreactivity
20,QVQLVESGGGLVQAGGSLRLSCAASGRIFDWNMGWYRQAPGKDRELVAGITFSVDSTYYADSVKGRFTISRDNAKNTVYLQMNSLKPEDTAYWGQGTQVTVST,low polyreactivity

row,Sequence,polyreactivity (PSR sort gate)
1,QVQLVESGGGLVQAGGSLRLSCAASGRIFDYNAMGWYRQAPGKERELVAAISSRGGRTYYADSVKGRFTISRDNAKNTVYLQMNSLKPEDTAVYYCNTGWATDADDYWGQGTQVTVSS,high polyreactivity
2,QVQLVESGGGLVQAGGSLRLSCAASGRIFDYNVMGWYRQPPGKESELVAAISWDGDSTYYADSVKGRFTISRDNAKNSVYLQMKSLKPEDTAVYYCNRVEGGTSWADEMNYWGQGTQVTVSS,low polyreactivity
3,QVQLVESGGGLVQAGGSLRLSCAASGRIFDYYDMGWYRQAPGKERELVAAISNGGSTYYADSVKGRFTISRDNAKNTVYLQMNCLKPEDTAVYYCNNRWYYQYGQSHVRWYDYWGQGTQVTVSS,high polyreactivity
4,QVQLVESGGGLVQAGGSLRLSCAASGRIFEEYAMGWYRQAPGKERELVAAITWGGSTYYADSVKGRFTISRDNAKNTVYLQMNSLKPEDTAVYYCAALKSYYWYTPRYRGDYWGQGTQVTVSS,low polyreactivity
5,QVQLVESGGGLVQAGGSLRLSCAASGRIFENNAMGWYRQAPGKERELVAAITSGGSTYYADSVKGRFTISRDNAKNTVYLQMNSLKPEDTAVYYCNVTFRVDPWTRTGYDYWGQGTQVTVSS,high polyreactivity
6,QVQLVESGGGLVQAGGSLRLSCAASGRIFEPYAMGWYRKAPGKERELLAAITSGGSTDYADSVKGRFTISRDNAKNTVYLQMNSLKPEDTAVYYCATRWGYAVSFDFYFLLSGVDYWGQGTQVTVSS,low polyreactivity
7,QVQLVESGGGLVQAGGSLRLSCAASGRIFESYAMGWYIQAPGKERELVAAISSGGGTTYYADSVKGLFTISRDNAKYSVYLQMNSLKPEDTAVYYCAADALSDEYDYWGQGTHVTVSS,low polyreactivity
8,QVQLVESGGGLVQAGGSLRLSCAASGRIFETNGMGWYRQAPGKERELVAAITRSGGVRTYADSVKGRFTISRDNAKNTVYLQMNSLKPEDTAVYYCNKRSILGRGTPSPYKRMYHWGQGTQVTVSS,low polyreactivity
9,QVQLVESGGGLVQAGGSLRLSCAASGRIFEVYAMGWYRQAPGKERELVAAITSSGGSRTYYADSVKGRFTISRDNAKNTVYLQMNSLKPEDTAVYYCNDYGGRWIGGRRAYRYNYWGQGTQVNVSS,high polyreactivity
10,QVQLVESGGGLVQAGGSLRLSCAASGRIFEWNTMGWYRQAPGKEREVVATISWDGGSTYYADSVKGRFTISRDNAKNTVYLQMNSLIPEDTAVYYCNKSPLNFFRFRATYDYWGQGTQVTVSS,low polyreactivity
11,QVQLVESGGGLVQAGGSLRLSCAASGRIFFANAMGWYRQAPGKERELVAAITSDGSTDYADSVKGRFTISRDNAKNTVYLQMNSLKPEDTAVYYCNADAYYRYGITMDYWGQGTQVTVSS,low polyreactivity
12,QVQLVESGGGLVQAGGSLRLSCAASGRIFFANTMGWYRQAPGKERELVAAISLSSGSTYYADSVKGRFTISRDNAKNTVYLQMNSLKPEDTAVYYCAARGYSHVASRLYYYWGQGTQVTVSS,high polyreactivity
13,QVQLVESGGGLVQAGGSLRLSCAASGRIFFANTMGWYRQAPGKERELVAAISLSSGTTYYADSVKGRFTISRDNAKNTVYLQMNSLKPDETAVYYCAARGYSHVASRLYYYWGQGTQVTVSS,high polyreactivity
14,QVQLVESGGGLVQAGGSLRLSCAASGRIFFATAMGWYRQAPGNERELVAAITSDGSTDYADSVKGRFTISRDNAKNTVYLQMNSLKPEDTAVYDCNADAYYRYGITMDYWGQGTQVTVSS,low polyreactivity
15,QVQLVESGGGLVQAGGSLRLSCAASGRIFFFNTMGWYRQAPGKERELVARINRGGRTNYADSVKGRFTISRDNAKNTVYLQMNSLKPEDTAVYYCAADRTWYKLETTEYDYWGQGTQVTVSS,high polyreactivity
16,QVQLVESGGGLVQAGGSLRLSCAASGRIFFHNAMGWYIQAPGKERELVATISWSGSSTYYADSVKGRFTISRDNAKNTVYLQMNSLKPEYTAVYYCNAVYGRFVVLRYDYWGQGTQVTVSS,high polyreactivity
17,QVQLVESGGGLVQAGGSLRLSCAASGRIFFLYAMGWYRQAPGKERELVASITRRGGSTYYADSVKGRFTISRDNAKNTVYLQMKSLKPEDTAVYYCAAELYRSNVYHYDYWGQGTQVTVSS,high polyreactivity
18,QVQLVESGGGLVQAGGSLRLSCAASGRIFFLYAMGWYRQAPGKERELVASITRRGGSTYYADSVKGRVTISRDNAKNTVYLQMTSLKPEDTAVYYCAAELYRSNVYHYDYWGQGTQVTVSS,high polyreactivity
19,QVQLVESGGGLVQAGGSLRLSCAASGRIFFNYAMGWYIQAPGKERELVARITGSGGRTYYADSVKGRFTISRDNAKNTVYLQMNSLKPEDTAVYYCNKVPGYKYDSWGQGTQVTVSS,high polyreactivity
20,QVQLVESGGGLVQAGGSLRLSCAASGRIFFNYAMGWYRQAPGKQRELDAAITTNGGSTYYAVSVKGRFTISRDNAKNTVYLLMNSLKPEDTAVYYCNTRRKNFVKSSQVEYWGQGTQVTVSS,high polyreactivity
